For assay [1], the target named is T1, human voltage-gated potassium channel Kv1.3, expressed endogenously in human peripheral blood T cells (human), P22001.
Assay [2] has as its target T2, mouse Kv1.1 channel stably expressed in L929 cells (mouse), P16388.
T2 chain: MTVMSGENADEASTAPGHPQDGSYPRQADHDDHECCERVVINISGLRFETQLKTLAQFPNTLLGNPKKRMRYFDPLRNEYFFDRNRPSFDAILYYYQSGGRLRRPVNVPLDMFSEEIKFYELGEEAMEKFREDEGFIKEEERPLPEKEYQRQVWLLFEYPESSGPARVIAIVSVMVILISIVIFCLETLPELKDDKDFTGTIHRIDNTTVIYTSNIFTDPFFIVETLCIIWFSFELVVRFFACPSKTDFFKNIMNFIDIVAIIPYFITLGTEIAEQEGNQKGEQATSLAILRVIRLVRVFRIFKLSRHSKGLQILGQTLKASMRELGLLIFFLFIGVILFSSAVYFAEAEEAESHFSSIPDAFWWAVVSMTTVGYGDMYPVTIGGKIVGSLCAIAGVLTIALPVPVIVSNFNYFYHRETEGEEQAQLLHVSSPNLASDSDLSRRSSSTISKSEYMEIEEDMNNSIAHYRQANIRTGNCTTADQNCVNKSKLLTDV

Assay [3] has as its target human Kv1.2 channel expressed in Cos-7 cells (human), P16389.
Assay [4] addresses T1, human voltage-gated potassium channel …. This is another data set of the same source.
The target in assay [5] is EGFP-tagged human IKCa1 Ca2+-activated K channel expressed in Cos-7 cells (human), O15554.
Sequence of EGFP-tagged human IKCa1 Ca2+-activated K channel expressed in Cos-7 cells (human), O15554 (O15554 whole entry): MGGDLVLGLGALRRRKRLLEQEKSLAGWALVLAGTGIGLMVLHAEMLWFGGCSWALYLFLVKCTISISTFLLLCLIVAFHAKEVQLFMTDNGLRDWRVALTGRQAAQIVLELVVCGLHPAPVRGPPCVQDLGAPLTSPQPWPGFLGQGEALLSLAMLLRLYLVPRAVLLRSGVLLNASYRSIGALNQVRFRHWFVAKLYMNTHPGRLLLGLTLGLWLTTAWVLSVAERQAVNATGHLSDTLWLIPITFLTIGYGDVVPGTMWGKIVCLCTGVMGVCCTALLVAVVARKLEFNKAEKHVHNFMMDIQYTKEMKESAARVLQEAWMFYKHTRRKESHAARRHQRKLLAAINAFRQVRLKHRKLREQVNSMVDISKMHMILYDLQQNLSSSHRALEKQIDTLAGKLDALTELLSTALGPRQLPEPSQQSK

A value given as a limit tells only on which side of the number the result lay.

T1 sequence (P22001 whole entry): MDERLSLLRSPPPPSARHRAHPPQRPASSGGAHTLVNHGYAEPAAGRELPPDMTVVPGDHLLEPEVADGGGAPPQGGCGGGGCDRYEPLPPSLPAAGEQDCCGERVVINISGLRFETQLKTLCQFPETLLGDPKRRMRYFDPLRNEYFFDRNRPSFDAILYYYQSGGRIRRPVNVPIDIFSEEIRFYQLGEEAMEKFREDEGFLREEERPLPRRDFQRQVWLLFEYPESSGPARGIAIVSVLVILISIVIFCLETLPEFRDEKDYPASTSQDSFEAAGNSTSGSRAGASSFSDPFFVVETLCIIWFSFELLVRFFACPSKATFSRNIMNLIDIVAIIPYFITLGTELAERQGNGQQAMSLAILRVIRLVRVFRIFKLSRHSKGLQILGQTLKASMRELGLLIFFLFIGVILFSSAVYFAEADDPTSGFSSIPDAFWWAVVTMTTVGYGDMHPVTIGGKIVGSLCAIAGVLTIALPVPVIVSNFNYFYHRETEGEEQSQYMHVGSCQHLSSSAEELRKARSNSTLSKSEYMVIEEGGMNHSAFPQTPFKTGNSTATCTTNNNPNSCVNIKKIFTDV
Sequence of human Kv1.2 channel expressed in Cos-7 cells (human), P16389 (P16389 whole entry): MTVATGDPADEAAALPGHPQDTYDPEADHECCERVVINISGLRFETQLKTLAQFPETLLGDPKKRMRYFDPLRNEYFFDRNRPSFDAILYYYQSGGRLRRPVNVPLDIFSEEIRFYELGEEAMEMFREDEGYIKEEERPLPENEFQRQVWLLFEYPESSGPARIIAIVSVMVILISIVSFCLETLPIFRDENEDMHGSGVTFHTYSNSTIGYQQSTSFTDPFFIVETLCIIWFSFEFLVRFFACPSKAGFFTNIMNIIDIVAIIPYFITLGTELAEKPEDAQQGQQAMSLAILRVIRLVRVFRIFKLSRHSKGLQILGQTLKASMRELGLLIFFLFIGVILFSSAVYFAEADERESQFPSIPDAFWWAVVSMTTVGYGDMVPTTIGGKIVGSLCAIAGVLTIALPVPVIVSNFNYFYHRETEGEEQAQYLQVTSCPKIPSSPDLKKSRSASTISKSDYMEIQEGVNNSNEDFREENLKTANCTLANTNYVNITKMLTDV

In assay [1], AAAISCVGSPECPPKCRAQGCKNGKCMNRKCKCYYC (modifications not checked) [Vm24 (native peptide purified from the venom of Vaejovis mexicanus smithi)] registered a Kd of 0.0029 nM. In addition, in assay [2], the dissociation constant (Kd) is 30 to 40 nM and the selectivity for hKv1.3 over mKv1.1 (fold) was > 10000 fold. In assay [3], the Kd was 5 to 10 nM and the selectivity for hKv1.3 over hKv1.2 (fold) is > 1500 fold. In assay [4], this molecule displayed an off-rate constant (koff) of 0.00026 s⁻¹ and a time constant for washout of 3800 s. In assay [5], the Kd came to 14 nM and the selectivity for hKv1.3 over hIKCa1 (fold) is > 4500 fold.

The term Kd denotes the equilibrium constant for the complex coming apart. A higher Kd goes with lower affinity. The koff is the first-order rate constant of dissociation. A low value points to slow dissociation.

(Values after patent US20110059064A1.)
